# Residue numbers refer to the chain shown, from its start. Names may count otherwise.
# B1: β-glucosidase B (BglB) (Paenibacillus polymyxa; N160L) (protein)
# chain: MSENTFIFPATFMWGTSTSSYQIEGGTDEGGRTPSIWDTFCQIPGKVIGGDCGDVACDHFHHFKEDVQLMKQLGFLHYRFSVAWPRIMPAAGIINEEGLLFYEHLLDEIELAGLIPMLTLYHWDLPQWIEDEGGWTQRETIQHFKTYASVIMDRFGERILWWNTINEPYCASILGYGTGEHAPGHENWREAFTAAHHILMCHGIASNLHKEKGLTGKIGITLNMEHVDAASERPEDVAAAIRRDGFINRWFAEPLFNGKYPEDMVEWYGTYLNGLDFVQPGDMELIQQPGDFLGINYYTRSIIRSTNDASLLQVEQVHMEEPVTDMGWEIHPESFYKLLTRIEKDFSKGLPILITENGAAMRDELVNGQIEDTGRHGYIEEHLKACHRFIEEGGQLKGYFVWSFLDNFEWAWGYSKRFGIVHINYETQERTPKQSALWFKQMMAKNGF
# B2: β-glucosidase B (BglB) (Paenibacillus polymyxa; N160M) (protein)
# chain: B1 chain with L160M
# B3: β-glucosidase B (BglB) (Paenibacillus polymyxa; N160G) (protein)
# chain: B1 chain with L160G
# B4: β-glucosidase B (BglB) (Paenibacillus polymyxa; N160S) (protein)
# chain: B1 chain with L160S
# B5: β-glucosidase B (BglB) (Paenibacillus polymyxa; N160C) (protein)
# chain: B1 chain with L160C
# Substrate: O=[N+]([O-])c1ccc(O[C@@H]2O[C@H](CO)[C@@H](O)[C@H](O)[C@H]2O)cc1
# Assay: purified protein
# Details: 0-100 mM substrate, 15 min
Protein,Km,kcat
B1,13.8 ± 1.6 mM,3.245 ± 0.127 s⁻¹
B2,14.1 ± 1.3 mM,4.162 ± 0.122 s⁻¹
B3,3.5 ± 0.2 mM,9.81 ± 0.137 s⁻¹
B4,4.9 ± 0.2 mM,4.527 ± 0.05 s⁻¹
B5,4.3 ± 0.3 mM,9.147 ± 0.157 s⁻¹

# From article doi:10.1101/2025.11.24.690255v1
